Assay results from PMC6459841, “Structural analyses of NudT16–ADP-ribose complexes direct rational design of mutants with improved processing of poly(ADP-ribosyl)ated proteins” (Scientific Reports, 2019).
Numbering of substitutions follows the chain as printed. Numbers in names are those of the source.

B1: Homo sapiens NudT16 (HsNudT16) (enzyme, human)
chain: MAGARRLELGEALALGSGWRHVCHALLYAPDPGMLFGRIPLRYAILMQMRFDGRLGFPGGFVDTQDRSLEDGLNRELREELGEAAAAFRVERTDYRSSHVGSGPRVVAHFYAKRLTLEELLAVEAGATRAKDHGLEVLGLVRVPLYTLRDGVGGLPTFLENSFIGSAREQLLEALQDLGLLQSGSISGLKIPAHH
notes: carries A22V as in the Mammalian Gene Collection clone BC031215; subcloned in pNIC28-BSA4; Dimer in solution (SEC) and in the crystal; also called wild-type HsNudT16; native HsNudT16; source: E. coli CodonPlus RIPL, purified (Ni-NTA, TEV cleavage, anion exchange, SEC); not shown: His6, N-terminal, cleaved
B2: HsNudT16 F61S (enzyme, human)
chain: B1 chain with F61S
notes: also called F61S mutant; source: E. coli CodonPlus RIPL, purified (Ni-NTA, TEV cleavage, anion exchange, SEC); not shown: His6, N-terminal, cleaved
B3: HsNudT16 H24W (enzyme, human)
chain: B1 chain with H24W
notes: also called H24W mutant; source: E. coli CodonPlus RIPL, purified (Ni-NTA, TEV cleavage, anion exchange, SEC); not shown: His6, N-terminal, cleaved

Target: the molecule itself
Assay: SEC; Superdex 75 10/300; 100 µL of each purified protein loaded at 0.3 mL/min, eluted over one column volume; Bio-Rad size standards; dimer to monomers

Stoichiometry N, 2:
B1, B2, B3
